The text below walks through data of patent US20220096654A1, “PYRROLOBENZODIAZEPINE-ANTIBODY CONJUGATES AND USES THEREOF” (ADC THERAPEUTICS SA, priority 2020, published 2022).

For data set [1], the system named is target cells. As to the kind of experiment: Live-imaging microscopy of antibody internalisation. The class given is cell-based. The following applies: live-imaging microscopy (data not shown). The text has this:
In particular, the lysosomal pathway can be important in providing an environment for cleavage of the antibody-drug linkers, hereby releasing the drug in the target cells for highly specific cell killing.

Data set [2] can be described thus: Dosimetry in non-humanised NSG mice. The format is in vivo. The conditions noted are these: for Comment (survival / culling): non-humanised NSG mice, monitored 2 weeks; for mice culled due to weight loss: human (hIgG1-AAA) format, ≥3 mg/kg, humanised and non-humanised mice. On the procedure: For dosimetry in non-humanised NSG mice, adult NSG mice were injected intravenously via the tail vein with unconjugated Mab or ADC up to 5 mg/kg. Mice regularly monitored over a period of 2 weeks for any signs of morbidity. Mice were culled if rapid weight loss (>15%) occurred over a period of 2 days.

Data set [3] has as its system luciferase expressing human CD45+ Jurkat cells. As to the kind of experiment: Jurkat leukaemia model in NSG mice (bioluminescence, survival). The class given is in vivo. The conditions noted are these: 1 mg/kg, day 16. On the procedure:
Adult NSG mice were sublethally irradiated with 2 Gy on the day before injection of cells. 5×10^6 fire fly luciferase expressing Jurkat cells in PBS were injected intravenously into the tail vein of mice. On the following day PBS, MAbs or ADC were injected intravenously into the tail vein at a dose of 1 mg/kg. Mice were regularly monitored for signs of morbidity and weight loss for the duration of the experiment. For imaging, mice were injected intraperitoneally with 3 mg D-luciferin in PBS. Mice were initially anesthetized with 4% isoflurane and then maintained at 2% isoflurane. Ten minutes after injection of D-luciferin, mice were imaged inside a IVIS Lumina III (PerkinElmer). A sub-saturating image was captured using the auto-exposure setting in the Living Image software.

The test system of data set [4] is human CD45+ cells. As to the kind of experiment: Depletion of human CD45+ cells in humanised NSG mice. The format is in vivo. The procedure:
Adult female NSG mice were sublethally irradiated with 2.5 Gy on the day before transplantation (day −57). Cryopreserved purified CD34+ cells from mobilized peripheral blood from a normal donor were thawed and 0.5×10^6 cells in PBS were injected intravenously into the tail vein of mice (day −56). Human engraftment (human CD45+ cells) in the blood of mice was assessed at day −14 and day −1. Mice were assigned to treatment cohorts so that the median human CD45+ engraftment in the blood between the cohorts was as similar as possible. Mice were injected with 0.3 mg/kg or 1 mg/kg Mab or ADC intravenously via the tail vein. Blood samples were taken after 7 days and analysed by flow cytometry. The bone marrow, blood and spleen of mice were analysed at two weeks post-treatment.

For data set [5], the system named is human CD34+ cells. As to the kind of experiment: Ex vivo treatment of CD34+ cells with Mab or ADC prior to engraftment in NSG mice. The conditions noted are these: CD34+ cells treated at 1 nM and 0.1 nM for 4 hours before transplantation; week 8. The procedure: Adult female NSG mice were sublethally irradiated with 2.5 Gy on the day before transplantation. Cryopreserved purified CD34+ cells from mobilized peripheral blood from a normal donor were thawed and cultured in complete medium (RPMI 1640 plus 10% fetal calf serum) in presence of Mab, ADC or medium alone for 4 hours. Cells were washed in phosphate buffered saline (PBS) and 0.5×10^6 cells in PBS were injected intravenously into the tail vein of mice. Engraftment of transplanted human cells (hCD45+) in the bone marrow of mice was determined by flow cytometry at 8 weeks after transplantation.

The subject of data set [6] is human CD45+ OCIM1 cells. Kind of data set: Complement dependent cytotoxicity (51Cr release) assay. The class given is cell-based. The following applies: 10 ug/ml antibody, 10% baby rabbit serum. On the procedure: 1×10^6 human CD45+ OCIM1 cells in 100 uL of complete medium (RPMI 1640 plus 10% fetal calf serum) were radiolabelled with 100 μCi ^51Cr sodium chromate for 1 h at 37° C. followed by three washes with complete medium. Labelled cells were incubated at 5×10^4/mL in triplicate wells of a 96 well plate in presence of YTH24.5 alone, YTH54.12 alone or with both antibodies for 10 mins at room temperature before of addition of baby rabbit serum at a final concentration of 10%. A final concentration of 5% Triton X-100 was added to control wells of cells to determined maximum lysis. 50 uL of supernatant from each well was transferred into a white-walled plates containing 150 uL scintillation liquid in each well. Plates were read in a MicroBeta counter (Trilux) after overnight incubation. The percentage of specific lysis was calculated using the standard formula [(experimental−spontaneous release)/(maximum load-spontaneous release)×100] and expressed as the mean of triplicate samples.

Data set [7] relates to CD34+ PBSC (CD45+). As to the kind of experiment: Clonogenic assay, CD34+ PBSC treated 2 h with Mab or ADC. The format is cell-based, human. On the procedure: Cryopreserved purified CD34+ cells from mobilized peripheral blood from three normal donors were thawed and cultured at […] complete medium (RPMI 1640 plus 10% fetal calf serum) in presence of Mab, ADC or medium alone for 2 hours in 96-well U-bottom plates. Cells were mixed and 40 uL was transferred to 2 ml of StemMACS HSC-CFU complete with Epo (Miltenyi Biotech) and mixed well. 0.5 ml (250 cells) was plated into triplicate into wells of a 24-well plate. Colonies were enumerated between 10-14 days. Data is mean of three donors±s.d.

A short description of data set [8]: Dosimetry in humanised NSG mice. The class given is in vivo. The conditions noted are these: 3 mg/kg, culled for weight loss >15%. On the procedure: For dosimetry in humanised NSG mice, adult female NSG mice were sublethally irradiated with 2.5 Gy on the day before transplantation. Cryopreserved purified CD34+ cells from mobilized peripheral blood from a normal donor were thawed and 0.5×10^6 cells in PBS were injected intravenously into the tail vein. Human engraftment (human CD45+ cells) in the blood of all mice was determined by flow cytometry at 12 weeks post-transplant. Mice were assigned to treatment cohorts so that the median human engraftment in the blood for between cohorts was as similar as possible. Mice were treated with 0.3 mg/kg or 3 mg/kg Mab or ADC. Blood samples were taken after 7 days and analysed by flow cytometry. The bone marrow, blood and spleen of mice were analysed at 14 days post-treatment.

Data set [9] relates to 293T (CD45-). Kind of data set: Cell viability assay 72 h (PrestoBlue), 293T. The class given is cell-based, human. The conditions noted are these: drug-linker B1. The procedure: OCIM1, Jurkat and Nalm6 cells were seeded at 0.5×10^5/mL were cultured for 72 hours in presence of Mab or ADC or medium (in triplicate wells) in wells of flat bottom 96-well plates. 293T cells were seeded at 9.3×10^3 cells per well in flat bottom 96-well plates and allowed to adhere the plate for up to 24 hours. 293T cells were subsequently cultured with Mab or ADC or medium (in triplicate wells) for 72 hours. PrestoBlue® Cell viability Reagent (Thermo Fisher Scientific) was added to each and incubated for up to 1.5 hours. Fluorescence intensity from each well was detected using a FLUOstar OPTIMA microplate reader (BMG Labtech). Data points are mean±s.d. for representative experiments.

Setting [10] is: PBD ADCs in human IgG1-AAA format.

B1: YTH54.12 (antibody)
heavy: EVQLVESGGGLVQPGGSMKLSCAASGFTFSDYYMAWVRQAPKKGLEWVASMSFAGSSTYYGDSVKGRFTISRDNAKTTLYLQMNSLRSEDTATYYCARMYTTDYYLYWYFDFWGPGTMVTVSSAQTTAPSVYPLAPGCGDTTSSTVTLGCLVKGYFPEPVTVTWNSGALSSDVHTFPAVLQSGLYTLTSSVTSSTWPSQTVTCNVAHPASSTKVDKKVERRNGGIGHKCPTCPTCHKCPVPELLGGPSVFIFPPKPKDILLISQNAKVTCVVVDVSEEEPDVQFSWFVNNVEVHTAQTQPREEQYNSTFRVVSALPIQHQDWMSGKEFKCKVNNKALPSPIEKTISKPKGLVRKPQVYVMGPPTEQLTEQTVSLTCLTSGFLPNDIGVEWTSNGHIEKNYKNTEPVMDSDGSFFMYSKLNVERSRWDSRAPFVCSVVHEGLHNHHVEKSISRPPGK
light: DVQMTQSPSYLAASPGESVSISCKASKSISNYLAWYQQKPGEANKILIYSGSTLQSGTPSRFSGSGSGTDFSLTIRNLEPEDFAVYYCQQYDEKPLTFGSGTKLEIKRADAAPTVSIFPPSMEQLTSGGATVVCFVNNFYPRDISVKWKIDGSEQRDGVLDSVTDQDSKDSTYSMSSTLSLTKVEYERHNLYTCEVVHKTSSSPVVKSFNRNEC
For the molecule B1, in [1], the internalisation result was “substantially internalised via a lysosomal pathway”. For the same molecule, the “Comment (survival / culling)” value in data set [2] (5 mg/kg i.v.) is “All alive at day 14”. Moreover, the “bioluminescent signal of naked antibody group relative to the corresponding ADC group” value in data set [3] turned out to be 10 fold. The “Mean % hCD45 levels in blood, 1 week post-treatment” value in data set [4] (0.3 mg/kg i.v.) is reported as 3.19%; in data set [4] (1 mg/kg i.v.) it was 1.02%. The “Mean % hCD45 levels in blood, 2 weeks Post-treatment” value was 3.81% in data set [4] (0.3 mg/kg i.v.) and 1.84% in data set [4] (1 mg/kg i.v.). The “course of the levels of human CD45+ cells in blood” value in data set [4] (1 mg/kg, two week period) was “transient reduction”. Also, the results for the “Mean % hCD45 levels in blood, Pre-treatment” value in data set [4] (group later dosed 0.3 mg/kg) and in [4] (group later dosed 1 mg/kg) were 5.52% and 5.98%, respectively. Besides, the “engraftment of human CD45+ cells in the bone marrow of NSG mice” value in data set [5] is on record as “prevented engraftment”. Also, the “lytic activity on OCIM1 cells” value in [6] was “no lytic activity”. The “inhibition of colony formation” value in data set [7] (MAbs in human IgG1-AAA or rat IgG2b format, Isotype control and Isotype control PBD rat IgG2b format only) is “do not inhibit colony formation”.

B2: YTH24.5-hIgG1-AAA-PBD: YTH24.5 in human IgG1-AAA format conjugated to PBD drug-linker B1 (conjugate)
VH: QVNLLQSGAALVKPGASVKLSCKASSYTFTDYYIHWVKQSHGKTLEWIGYINPKSGFTNYNEKFRRKATLTVDKSTNTAYMDISRLTSEDSATYYCTRRTGVIPMDAWGQGASVTVSS
VL: DVVMTQTPVSLSVSLGGQVSISCRSSQSFVSSDGNTYLNWYLQKPGQSPQLLIYKVSNRLSGVPDRFSGSGSGTDFTLKISRVEHDDLGVYYCGQASKIPLTFGSGTKLEIK
As for B2, the “Comment (survival / culling)” value in [2] (0.5 mg/kg i.v.) is “All alive at day 14”; in [2] (5 mg/kg i.v.), 2 culled at day 6 -; in data set [8], 1 culled day 6, 1. The “mice culled due to weight loss” value in data set [2] is 4 of the 6. Moreover, in [9], a half-maximal response (EC50) required 134 nM. Moreover, in [7] (setting [10]), the “inhibition of colony formation” value is on record as “dose-dependent inhibition of colony formation”.

B3: YTH54.12-hIgG1-AAA-PBD: YTH54.12 in human IgG1-AAA format conjugated to PBD drug-linker B1 (conjugate)
VH: EVQLVESGGGLVQPGGSMKLSCAASGFTFSDYYMAWVRQAPKKGLEWVASMSFAGSSTYYGDSVKGRFTISRDNAKTTLYLQMNSLRSEDTATYYCARMYTTDYYLYWYFDFWGPGTMVTVSS
VL: DVQMTQSPSYLAASPGESVSISCKASKSISNYLAWYQQKPGEANKILIYSGSTLQSGTPSRFSGSGSGTDFSLTIRNLEPEDFAVYYCQQYDEKPLTFGSGTKLEIK
Regarding B3, the “Comment (survival / culling)” value is on record as “All alive at day 14” in data set [2] (0.5 mg/kg i.v.), “All alive at day 14” in [2] (5 mg/kg i.v.) and 1 culled on day 9 in [8]. Further, the “mice culled due to weight loss” value in data set [2] is recorded as 1 of the 6. In data set [9], the EC50 (as a rule, the concentration needed to bring the measured effect to its halfway point) was 16.5 nM. For the same molecule, the “inhibition of colony formation” value in data set [7] (setting [10]) was “dose-dependent inhibition of colony formation”.
